From EP4792891A2 (LTZ Therapeutics Inc., dated 2026)

Tests used:
[1] = molecular target: EGFR on DLD-1 cells (UniProt P00533); experiment: cell-based or functional assay
[2] = molecular target: T1, CD79b on cells (Ramos cells, endogenous B cells) (human, UniProt P40259 29-229); experiment: cell-based or functional assay
T1 sequence (looked up): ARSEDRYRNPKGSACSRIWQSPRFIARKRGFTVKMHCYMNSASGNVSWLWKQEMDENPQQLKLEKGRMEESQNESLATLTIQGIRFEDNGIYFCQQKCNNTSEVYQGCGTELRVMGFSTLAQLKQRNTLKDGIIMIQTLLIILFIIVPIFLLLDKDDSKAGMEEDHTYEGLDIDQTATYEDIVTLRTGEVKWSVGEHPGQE

Necitumumab (antibody)
IC50 (nM), DLD-1 cell killing by M0 macrophages [1]: 0.0574 nM

B1: CD79b/5C7 (1+1 B) Fc-optimized (bispecific antibody, human IgG1, kappa)
heavy 1: EQQLVETGGGLIQPGGSLRLSCAASGFTINIDYWISWVRQAPGKGLEWIGIIDPGDGTTYFAIWVSGRFTISFDNSKNTVYLQMNSLRAEDTAVYFCVREFSASAYQYDLWGPGTLVTVSSASTKGPSVFPLAPSSKSTSGGTAALGCLVKDYFPEPVTVSWNSGALTSGVHTFPAVLQSSGLYSLSSVVTVPSSSLGTQTYICNVNHKPSNTKVDKKVEPKSCDKTHTCPPCPAPELLAGPSVFLFPPKPKDTLMISRTPEVTCVVVDVSHEDPEVKFNWYVDGVEVHNAKTKPREEQYNSTYRVVSVLTVLHQDWLNGKEYKCKVSNKALPLPEEKTISKAKGQPREPQVYTLPPSRDELTKNQVSLSCAVKGFYPSDIAVEWESNGQPENNYKTTPPVLDSDGSFFLVSKLTVDKSRWQQGNVFSCSVMHEALHNHYTQKSLSLSPGK
heavy 2: DIQMTQSPSSLSASVGDRVTITCQASESVDRNNRLAWFQQKPGKPPKLLIYTTSTLASGVPSRFSGSGSGTDFTLTISSLQPEDVATYYCAGYRGAHTDGDAFGGGTKVEIKGGGGSGGGGSGGGGSGGGGSEQQLVESGGGLVKPGGSLRLSCAASGFSFSRSSYMCWVRQAPGKGLEWIGCLSVGDGHTYYASWAKGRFTISKDSAKNSVYLQMNSLRAEDTAVYFCARAPSYSGDGGHGYDLWGPGTLVTVSSDKTHTCPPCPAPELLAGPSVFLFPPKPKDTLMISRTPEVTCVVVDVSHEDPEVKFNWYVDGVEVHNAKTKPREEQYNSTYRVVSVLTVLHQDWLNGKEYKCKVSNKALPLPEEKTISKAKGQPREPQVYTLPPSRDELTKNQVSLWCLVKGFYPSDIAVEWESNGQPENNYKTTPPVLDSDGSFFLYSKLTVDKSRWQQGNVFSCSVMHEALHNHYTQKSLSLSPGK
light: ELVMTQSPATLSVSPGERATLSCRASEDIENYLAWYQQKPGQPPRLLIYRASTLSSGVPARFSGSGSGTEFTLTISSLQSEDFAVYYCQQGYRNSNVDNPFGGGTKVEIKRTVAAPSVFIFPPSDEQLKSGTASVVCLLNNFYPREAKVQWKVDNALQSGNSQESVTEQDSKDSTYSLSSTLTLSKADYEKHKVYACEVTHQGLSSPVTKSFNRGEC
IC50 (nM), killing of endogenous B cells by PBMCs, Donor 234 [2]: 0.0453 nM

B2: CD79b/5C7 (2+2 B) Fc-optimized (bispecific antibody, human IgG1, kappa)
heavy: EQQLVETGGGLIQPGGSLRLSCAASGFTINIDYWISWVRQAPGKGLEWIGIIDPGDGTTYFAIWVSGRFTISFDNSKNTVYLQMNSLRAEDTAVYFCVREFSASAYQYDLWGPGTLVTVSSASTKGPSVFPLAPSSKSTSGGTAALGCLVKDYFPEPVTVSWNSGALTSGVHTFPAVLQSSGLYSLSSVVTVPSSSLGTQTYICNVNHKPSNTKVDKKVEPKSCDKTHTCPPCPAPELLAGPSVFLFPPKPKDTLMISRTPEVTCVVVDVSHEDPEVKFNWYVDGVEVHNAKTKPREEQYNSTYRVVSVLTVLHQDWLNGKEYKCKVSNKALPLPEEKTISKAKGQPREPQVYTLPPSRDELTKNQVSLTCLVKGFYPSDIAVEWESNGQPENNYKTTPPVLDSDGSFFLYSKLTVDKSRWQQGNVFSCSVMHEALHNHYTQKSLSLSPGGGGGSGGGGSGGGGSDIQMTQSPSSLSASVGDRVTITCQASESVDRNNRLAWFQQKPGKPPKLLIYTTSTLASGVPSRFSGSGSGTDFTLTISSLQPEDVATYYCAGYRGAHTDGDAFGCGTKVEIKGGGGSGGGGSGGGGSGGGGSEQQLVESGGGLVKPGGSLRLSCAASGFSFSRSSYMCWVRQAPGKCLEWIGCLSVGDGHTYYASWAKGRFTISKDSAKNSVYLQMNSLRAEDTAVYFCARAPSYSGDGGHGYDLWGPGTLVTVSS
light: ELVMTQSPATLSVSPGERATLSCRASEDIENYLAWYQQKPGQPPRLLIYRASTLSSGVPARFSGSGSGTEFTLTISSLQSEDFAVYYCQQGYRNSNVDNPFGGGTKVEIKRTVAAPSVFIFPPSDEQLKSGTASVVCLLNNFYPREAKVQWKVDNALQSGNSQESVTEQDSKDSTYSLSSTLTLSKADYEKHKVYACEVTHQGLSSPVTKSFNRGEC
IC50 (nM), killing of endogenous B cells by PBMCs, Donor 367 [2]: 0.0168 nM | IC50 (nM), killing of endogenous B cells by PBMCs, Donor 431 [2]: 0.0168 nM
